Laboratory results published in US20170107293A1 (BIOINVENT INTERNATIONAL, published 2017).

T1: human FcγRIIB on cells (human, UniProt P31994 43-310)
T1 construct: whole, on cells; also called hFcγRIIB; CD32B
T1 sequence (looked up): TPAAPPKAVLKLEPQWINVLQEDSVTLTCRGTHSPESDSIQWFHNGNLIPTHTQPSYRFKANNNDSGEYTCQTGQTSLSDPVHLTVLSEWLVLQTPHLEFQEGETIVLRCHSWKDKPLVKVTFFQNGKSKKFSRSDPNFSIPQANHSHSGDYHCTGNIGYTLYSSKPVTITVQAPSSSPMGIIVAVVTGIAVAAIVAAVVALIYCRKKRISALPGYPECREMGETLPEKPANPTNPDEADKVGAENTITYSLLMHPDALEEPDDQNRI

T2: Soluble hFcγRIIB (R & D Systems) (human, UniProt P31994 46-217)
T2 construct: Bought reagent; also called hFcγRIIB fusion protein
T2 sequence (looked up): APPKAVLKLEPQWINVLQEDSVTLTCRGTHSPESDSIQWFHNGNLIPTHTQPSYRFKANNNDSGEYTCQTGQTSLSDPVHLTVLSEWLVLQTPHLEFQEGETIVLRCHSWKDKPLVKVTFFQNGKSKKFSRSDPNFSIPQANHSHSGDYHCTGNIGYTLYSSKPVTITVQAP

T3: human FcγRIIA on cells (human, UniProt P12318 34-317)
T3 construct: whole, on cells; also called hFcγRIIA; FcγRIIA^+ve CHO
T3 sequence (looked up): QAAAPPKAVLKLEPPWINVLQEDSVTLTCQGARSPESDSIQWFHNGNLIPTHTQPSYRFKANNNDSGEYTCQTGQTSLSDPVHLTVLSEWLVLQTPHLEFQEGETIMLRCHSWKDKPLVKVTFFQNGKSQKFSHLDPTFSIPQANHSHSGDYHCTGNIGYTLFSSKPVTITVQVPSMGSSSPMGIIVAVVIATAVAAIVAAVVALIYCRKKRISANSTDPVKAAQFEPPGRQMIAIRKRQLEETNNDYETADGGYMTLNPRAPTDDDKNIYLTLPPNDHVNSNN

T4: cynomolgus monkey FcγRIIB (cynomolgus monkey, UniProt A0A140HDP4 43-312)
T4 construct: whole, on cells; also called FcγRIIB in other species
T4 sequence: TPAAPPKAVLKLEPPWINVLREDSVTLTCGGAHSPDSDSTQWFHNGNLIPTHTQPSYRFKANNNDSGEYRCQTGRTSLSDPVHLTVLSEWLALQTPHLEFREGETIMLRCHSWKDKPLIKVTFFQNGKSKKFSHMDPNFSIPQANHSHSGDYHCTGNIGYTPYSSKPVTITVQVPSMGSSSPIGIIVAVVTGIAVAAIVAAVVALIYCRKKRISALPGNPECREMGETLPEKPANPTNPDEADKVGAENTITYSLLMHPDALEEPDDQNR

T5: rat FcγRIIB (rat, UniProt A0A0G2K9R6 42-295)
T5 construct: also called FcγRIIB in other species
T5 sequence: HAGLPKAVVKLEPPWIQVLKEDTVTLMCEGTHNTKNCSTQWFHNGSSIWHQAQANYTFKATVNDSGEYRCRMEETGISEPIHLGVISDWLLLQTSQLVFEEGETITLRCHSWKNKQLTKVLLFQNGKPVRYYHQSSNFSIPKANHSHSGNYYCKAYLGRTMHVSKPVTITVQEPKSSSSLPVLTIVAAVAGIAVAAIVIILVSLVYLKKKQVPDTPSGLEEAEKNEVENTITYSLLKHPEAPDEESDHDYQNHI

T6: mouse FcγRIIB (mouse, UniProt P08101 30-330)
T6 construct: whole, on cells; also called mFcγRII; FcγRIIB in other species
T6 sequence (looked up): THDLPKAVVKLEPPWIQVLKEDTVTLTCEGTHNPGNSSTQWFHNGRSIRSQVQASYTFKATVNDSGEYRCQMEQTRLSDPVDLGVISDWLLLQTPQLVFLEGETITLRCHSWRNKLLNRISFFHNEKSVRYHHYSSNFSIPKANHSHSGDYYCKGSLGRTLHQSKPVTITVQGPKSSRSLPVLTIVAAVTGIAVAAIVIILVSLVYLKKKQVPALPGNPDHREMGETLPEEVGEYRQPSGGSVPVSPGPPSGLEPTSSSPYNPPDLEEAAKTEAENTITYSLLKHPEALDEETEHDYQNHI


Columns and labels:
human FcγRIIB on cells [1] = biological target: T1, human FcγRIIB on cells; experiment: binding to hFcγRIIB-transfected cells, total fluorescence intensity against mAb concentration [2/2) bottom]
[2] = biological target: T2, Soluble hFcγRIIB (R & D Systems); experiment: SPR, mAb immobilised, soluble hFcγRIIB injected
Protocol: (§1) A BIAcore T100 analyzer (GE Healthcare, UK) was used to determine the binding affinity of the hFcγRIIB mAb, as described elsewhere.²⁵ mAb were immobilized onto a CM5 sensorchip (GE Healthcare, UK), using standard amine coupling according to the manufacturer's instructions. Soluble hFcγRIIB (0.16-100 nM; R & D Systems, UK) was injected for 5 minutes and dissociation monitored for 10 minutes. Background binding to the control flow cell was monitored and subtracted automatically. The KD values were calculated from the 1:1 binding model using the BIAcore T100 Evaluation software.

human FcγRIIB on cells [3] = biological target: T1, human FcγRIIB on cells; experiment: inhibition of binding of IC to hFcγRIIB-transfected cells by the mAb [2/2) bottom]
[4] = biological target: T2, Soluble hFcγRIIB (R & D Systems); experiment: SPR (Biacore T100), mAb immobilised on CM5, soluble hFcγRIIB injected, 1:1 model
Protocol: as §1

[5] = biological target: T2, Soluble hFcγRIIB (R & D Systems); experiment: SPR (Biacore T100), mAb immobilised on CM5, soluble hFcγRIIB injected, 1:1 model; column headed KD (1/s)
Protocol: as §1

[6] = biological target: T2, Soluble hFcγRIIB (R & D Systems); experiment: SPR, mAb immobilised, soluble hFcγRIIB injected; column headed KD (1/s)
Protocol: as §1

[7] = biological target: T2, Soluble hFcγRIIB (R & D Systems); experiment: SPR, mAb immobilised, soluble hFcγRIIB injected; column headed KA (1/MS)
Protocol: as §1

[8] = biological target: T2, Soluble hFcγRIIB (R & D Systems); experiment: SPR (Biacore T100), mAb immobilised on CM5, soluble hFcγRIIB injected, 1:1 model; column headed KA (1/MS)
Protocol: as §1

human FcγRIIA on cells [9] = biological target: T3, human FcγRIIA on cells; experiment: binding to FcγRIIA-transfected CHO-k1 cells
[10] = biological target: T2, Soluble hFcγRIIB (R & D Systems); experiment: SPR, mAb immobilised, soluble hFcγRIIB injected; Table 2 gives the same values for 6G08
Protocol: as §1

[11] = biological target: T2, Soluble hFcγRIIB (R & D Systems); experiment: SPR, mAb immobilised, soluble hFcγRIIB injected; column headed KD (1/s); Table 2 gives the same values for 6G08
Protocol: as §1

human FcγRIIA on cells [12] = biological target: T3, human FcγRIIA on cells; experiment: not specified (summary in the discussion)
[13] = biological target: T4, cynomolgus monkey FcγRIIB; experiment: IHC on frozen tissue sections
rat FcγRIIB = biological target: T5, rat FcγRIIB; experiment: IHC on frozen tissue sections
mouse FcγRIIB = biological target: T6, mouse FcγRIIB; experiment: IHC on frozen tissue sections
human FcγRIIA on cells [14] = biological target: T3, human FcγRIIA on cells; experiment: binding to FcγRIIA-transfected CHO-k1 cells; remark: listed apart in the source

EC50 (read off the curve) (human FcγRIIB on cells [1]) [nM] | Kd [2] [nM] | IC50 (read off the curve) (human FcγRIIB on cells [3]) [nM] | Kd [4] [nM] | koff [5] [s⁻¹] | koff [6] [s⁻¹] | kon [7] [M⁻¹ s⁻¹] | kon [8] [M⁻¹ s⁻¹] | binding result (human FcγRIIA on cells [9]) | Kd [10] [nM] | koff [11] [s⁻¹] | binding result (human FcγRIIA on cells [12]) | binding result [13] | binding result (rat FcγRIIB) | binding result (mouse FcγRIIB) | binding result (human FcγRIIA on cells [14]) | Binder
~0.4 | 142 | ~0.6 | 142 | 0.0481 | 0.0481 | 324000 | 324000 | – | – | – | – | – | – | – | – | 5C04 (antibody, human IgG1, V domains shown, hFcγRIIB mAb, human IgG1 (WT); Only VH/VL tied to the clone; also called Antibody clone: 5C04) VH: EVQLLESGGGLVQPGGSLRLSCAASGFTFSNYGMHWVRQAPGKGLEWVAVISYDGSNKYYADSVKGRFTISRDNSKNTLYLQMNSLRAEDTAVYYCAREWRDAFDIWGQGTLVTVSS VL: QSVLTQPPSASGTPGQRVTISCTGSSSNIGAGYDVHWYQQLPGTAPKLLIYSDNQRPSGVPDRFSGSKSGTSASLAISGLRSEDEADYYCAAWDDSLSGSWVFGGGTKLTVLG
– | – | – | – | – | – | – | – | no binding | 713 | 0.337 | – | – | – | – | – | 5G08 (antibody, human IgG1, V domains shown, hFcγRIIB mAb, human IgG1 (WT); Only VH/VL tied to the clone; also called Antibody clone: 5G08) VH: EVQLLESGGGLVQPGGSLRLSCAASGFTFNNYGMHWVRQAPGKGLEWVAVISYDGSNRYYADSVKGRFTMSRDNSKNTLYLQMNSLRAEDTAVYYCARDRWNGMDVWGQGTLVTVSS VL: not shown
– | 26.4 | – | 26.4 | 0.182 | 0.182 | 6.9e+06 | 6.9e+06 | – | – | – | no binding | no binding | no binding | no binding | – | 6G11 (antibody, human IgG1, V domains shown, Lead antagonistic hFcγRIIB mAb, human IgG1 (WT); Only VH/VL tied to the clone; also called Antibody clone: 6G11; WT 6G11) VH: EVQLLESGGGLVQPGGSLRLSCAASGFTFSSYGMHWVRQAPGKGLEWMAVISYDGSNKYYADSVKGRFTISRDNSKNTLYLQMNSLRAEDTAVYYCARELYDAFDIWGQGTLVTVSS VL: QSVLTQPPSASGTPGQRVTISCTGSSSNIGAGYDVHWYQQLPGTAPKLLIYADDHRPSGVPDRFSGSKSGTSASLAISGLRSEDEADYYCASWDDSQRAVIFGGGTKLTVLG
– | 2210 | – | 2210 | 0.00177 | 0.00177 | 802 | 802 | – | – | – | – | – | – | – | no binding | 5C05 (antibody, human IgG1, V domains shown, hFcγRIIB mAb, human IgG1 (WT); Only VH/VL tied to the clone; also called Antibody clone: 5C05) VH: EVQLLESGGGLVQPGGSLRLSCAASGFTFSTYGMHWVRQAPGKGLEWVAVISYDGSNKYYADSVKGRFTISRDNSKNTLYLQMNSLRAEDTAVYYCARENFDAFDVWGQGTLVTVSS VL: QSVLTQPPSASGTPGQRVTISCTGSSSNIGAGYDVHWYQQLPGTAPKLLIYSNSQRPSGVPDRFSGSKSGTSASLAISGLRSEDEADYYCAAWDDSLNGQVVFGGGTKLTVLG
